The values that follow come from patent US20180258181A1 (Bayer, published 2018).

First the molecules themselves.
B1: MF-T IgG (antibody, V domains shown)
VH: QVELVQSGAEVKKPGESLKISCKGSGYSFTSYWIGWVRQAPGKGLEWMGIIDPGDSRTRYSPSFQGQVTISADKSISTAYLQWSSLKASDTAMYYCARGQLYGGTYMDGWGQGTLVTVSS
VL: DIALTQPASVSGSPGQSITISCTGTSSDIGGYNSVSWYQQHPGKAPKLMIYGVNNRPSGVSNRFSGSKSGNTASLTISGLQAEDEADYYCSSYDIESATPVFGGGTKLTVLG
B2: MF-J IgG (antibody, V domains shown)
VH: QVELVQSGAEVKKPGESLKISCKGSGYSFTNYWIGWVRQMPGKGLEWMGVIMPSDSYTRYSPSFQGQVTISADKSISTAYLQWSSLKASDTAMYYCARYGHGMYGGALDVWGQGTLVTVSS
VL: DIVLTQSPATLSLSPGERATLSCRASQSVRSSRLAWYQQKPGQAPRLLIYGASKRATGVPARFSGSGSGTDFTLTISSLEPEDFATYYCQQYYDFPPTFGQGTKVEIKR
B3: MF-226 IgG (antibody, V domains shown)
VH: QVELVQSGAEVKKPGASVKVSCKASGYTFTGNYINWVRQAPGQGLEWMGIINPHGGDTKYAQKFQGRVTMTRDTSISTAYMELSSLRSEDTAVYYCARWHHGTWIFDYWGQGTLVTVSS
VL: DIVLTQPPSVSGAPGQRVTISCSGSSSNIGSNYVSWYQQLPGTAPKLLIYNDNQRPSGVPDRFSGSKSGTSASLAITGLQSEDEADYYCSTYDRRTFSVFGGGTKLTVLG
B4: MF-L IgG (antibody, V domains shown)
VH: QVQLVESGGGLVQPGGSLRLSCAASGFTFSDYAMSWVRQAPGKGLEWVSAIMYDSSSTFYADSVKGRFTISRDNSKNTLYLQMNSLRAEDTAVYYCARINYIYKGVHFDYWGQGTLVTVSS
VL: DIVLTQSPATLSLSPGERATLSCRASQIVSGYLAWYQQKPGQAPRLLIYGASSRATGVPARFSGSGSGTDFTLTISSLEPEDFATYYCQQYYNFSFTFGQGTKVEIKR
B5: MF-A IgG (antibody, V domains shown)
VH: QVQLVQSGAEVKKPGSSVKVSCKASGGTFSSYYFSWVRQAPGQGLEWMGGIIPKFGSANYAQKFQGRVTITADESTSTAYMELSSLRSEDTAVYYCARRTSMDYWGQGTLVTVSS
VL: DIALTQPASVSGSPGQSITISCTGTSSDVGGYNYVSWYQQHPGKAPKLMIYSVSKRPSGVSNRFSGSKSGNTASLTISGLQAEDEADYYCGAWAHMSLGKVFGGGTKLTVLG
B6: MOR07265 IgG (antibody, V domains shown)
VH: B2 VH with E3Q, V50F, M52W, S54V, Y57W, R59Q
VL: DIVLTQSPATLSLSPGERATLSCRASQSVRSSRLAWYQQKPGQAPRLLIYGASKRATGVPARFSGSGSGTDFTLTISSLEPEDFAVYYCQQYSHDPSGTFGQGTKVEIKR
B7: MOR06643 IgG (antibody, V domains shown)
VH: B4 VH
VL: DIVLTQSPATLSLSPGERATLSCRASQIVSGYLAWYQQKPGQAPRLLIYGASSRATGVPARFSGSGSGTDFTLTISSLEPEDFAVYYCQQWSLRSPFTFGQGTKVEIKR
B8: MOR06657 IgG (antibody, V domains shown)
VH: B5 VH
VL: B5 VL with G91A, A92T, A94D, M96S, S97Q, L98M
B9: MF-428 (antibody, V domains shown)
VH: QVQLVESGGGLVQPGGSLRLSCAASGFTFSTYAMSWVRQAPGKGLEWVSFISGYGSSTYYADSVKGRFTISRDNSKNTLYLQMNSLRAEDTAVYYCARKMYWWSDGFDYWGQGTLVTVSS
VL: DIELTQPPSVSVAPGQTARISCSGDNLRSKYAHWYQQKPGQAPVLVIYSKDNRPSGIPERFSGSNSGNTATLTISGTQAEDEADYYCSSWAHDHKVFGGGTKLTVLG

Substitutions are numbered along the chain they refer to.

T2 sequence (Q13421 other isoform, or with tags, fused parts or gaps limits assumed): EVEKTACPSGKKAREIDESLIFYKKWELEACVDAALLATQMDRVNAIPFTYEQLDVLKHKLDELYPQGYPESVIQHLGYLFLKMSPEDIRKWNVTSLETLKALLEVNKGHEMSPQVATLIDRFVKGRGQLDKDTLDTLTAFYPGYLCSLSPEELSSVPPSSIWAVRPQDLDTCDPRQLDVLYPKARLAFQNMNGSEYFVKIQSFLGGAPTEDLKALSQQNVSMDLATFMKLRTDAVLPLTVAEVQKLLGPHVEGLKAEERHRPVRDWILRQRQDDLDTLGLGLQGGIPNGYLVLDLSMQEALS

In the first test the target is T1, mesothelin on CHO-A9 cells (CHO-K1 stably transfected with the GPI-anchored C-terminal part of mesothelin) (Homo sapiens (Human), UniProt Q13421 287-598, GPI anchor).
T1 construct: In the immunoblots the protein stood in a denatured cell extract; also called mesothelin-expressing CHO-A9 cells
T1 sequence (Q13421 other isoform, or with tags, fused parts or gaps limits assumed): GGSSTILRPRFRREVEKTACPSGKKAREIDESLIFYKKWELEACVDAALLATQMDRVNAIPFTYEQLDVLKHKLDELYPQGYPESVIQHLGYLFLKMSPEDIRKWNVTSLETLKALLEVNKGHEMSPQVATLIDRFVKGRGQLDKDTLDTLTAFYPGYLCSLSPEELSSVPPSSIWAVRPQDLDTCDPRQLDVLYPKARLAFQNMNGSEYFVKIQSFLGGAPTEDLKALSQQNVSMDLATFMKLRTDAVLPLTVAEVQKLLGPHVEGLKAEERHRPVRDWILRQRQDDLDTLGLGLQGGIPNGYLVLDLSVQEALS
Description: live cell ELISA, IgG1 on CHO-A9 cells.
B1: the EC50 worked out at 1.5 nM.

Turning to B2, the EC50 came out at 3.9 nM.

Take B3: a half-maximal response (EC50) required 0.4 nM.

In the case of B4, the EC50 was determined as 0.8 nM.

In turn, B5 yielded an EC50 of 0.8 nM.

The next test addresses T2, mesothelin on NCI-H226 cells (UniProt Q13421 296-598).
T2 construct: whole, on cells; In the immunoblots the protein stood in a denatured cell extract
The test is described as follows: FACS titration, IgG on NCI-H226 cells. On the procedure:
FACS titration was performed in a 96 well microtiter plate, in which serial dilutions of the primary antibody in a volume of 80 μl of FACS buffer (3% FCS, 0.02% NaN₃ in PBS) were mixed with 20 μl of a cell suspension consisting of 10⁶ cells/ml which had been detached with accutase or trypsin/EDTA, and resuspended in FACS buffer. Incubation was performed at 4° C. for 1 hour with agitation. Cells were washed twice with FACS buffer and resuspended in 100 μl/well of anti-human PE conjugate solution in FACS buffer. Incubation and washing was performed as before. Analysis of cell-bound antibodies was done using the FACS Array device. EC₅₀ values were determined from fluorescence medians of duplicates using Prism 4.0 software (GraphPad) applying non-linear regression fit.
B6 had an EC50 of 1.11 nM.

The molecule B7 yielded an EC50 of 0.23 nM.

Turning to B8, the EC50 came out at 0.14 nM.

A further test deals with T1, mesothelin on CHO-A9 cells (CHO-K1 …). The test is described as follows: FACS with Scatchard analysis, IgG1 on CHO-A9 cells.
The molecule B1 registered an EC50 of 0.27 nM.

In the case of B2, the EC50 is 0.11 nM.

For the molecule B3, the EC50 is 0.15 nM.

For B4, the EC50 was 0.07 nM.

Regarding B5, a half-maximal effect (EC50) was put at 0.05 nM.

The target of another test is T3, human mesothelin (recombinant, soluble, purified; 40 kDa C-terminal polypeptide of the mesothelin precursor) (human, UniProt Q13421 296-598, limits assumed).
T3 construct: also called soluble mesothelin
Description: Biacore pairwise binding, mesothelin (50 nM) captured by immobilized MF-T, second antibody 200 nM. On the procedure:
Competitive binding of pairs of antibodies was determined by immobilizing one antibody to the sensor chip, binding soluble mesothelin to this antibody and immediately binding a second antibody to mesothelin. Pairs of antibodies which recognize the same or overlapping epitopes on mesothelin cannot bind simultaneously. All combinations of antibody pairs were tested. Representative data for MF-T are shown (A). Panel B depicts the relative positions of epitopes of seven anti-mesothelin antibodies, in which competition is depicted by overlapping circles.
Epitope grouping experiments were performed using Biacore by monitoring simultaneous binding of pairs of anti-mesothelin antibodies to immobilized mesothelin. Briefly, the first antibody was covalently immobilized to the sensor chip through primary amine coupling using n-hydroxysuccinamide ([…]) and N-ethyl-N′-dimethylaminopropyl carbodiimide (EDC). Unoccupied binding sites on the surface were then blocked with ethanolamide. Soluble mesothelin was captured on the surface via the immobilized antibody, therefore, the epitope of the capture antibody is blocked for all bound mesothelin molecules. A second antibody was immediately passed over the surface to bind to the immobilized mesothelin. Two antibodies recognizing the same or overlapping epitopes cannot bind to the mesothelin, whereas antibodies with distinct epitopes are able to bind. […]
Turning to B9, the binding result is “binds”.
